Target: recombinant CSABP protein (CSABP-FL) (human) (UniProt Q9H6S0)
Experiment: SPR, Biacore 3000; recombinant CSABP-FL immobilized on CM5 chip by amine coupling, CsA in PBS-8% DMSO as analyte

Substance: cyclosporin A (CsA) (peptide)
- Kd: 120 nM

— patent US20110158908A1, “CYCLOSPORIN A-BINDING PROTEIN” (Sapporo Medical University, priority 2007, published 2011)
